IntAct's records for PubMed 25910212

B1: Keratin, type II cytoskeletal 6A (Homo sapiens), P02538 (parent)
chain: MASTSTTIRSHSSSRRGFSANSARLPGVSRSGFSSVSVSRSRGSGGLGGACGGAGFGSRSLYGLGGSKRISIGGGSCAISGGYGSRAGGSYGFGGAGSGFGFGGGAGIGFGLGGGAGLAGGFGGPGFPVCPPGGIQEVTVNQSLLTPLNLQIDPTIQRVRAEEREQIKTLNNKFASFIDKVRFLEQQNKVLETKWTLLQEQGTKTVRQNLEPLFEQYINNLRRQLDSIVGERGRLDSELRGMQDLVEDFKNKYEDEINKRTAAENEFVTLKKDVDAAYMNKVELQAKADTLTDEINFLRALYDAELSQMQTHISDTSVVLSMDNNRNLDLDSIIAEVKAQYEEIAQRSRAEAESWYQTKYEELQVTAGRHGDDLRNTKQEIAEINRMIQRLRSEIDHVKKQCANLQAAIADAEQRGEMALKDAKNKLEGLEDALQKAKQDLARLLKEYQELMNVKLALDVEIATYRKLLEGEECRLNGEGVGQVNISVVQSTVSSGYGGASGVGSGLGLGGGSSYSYGSGLGVGGGFSSSSGRAIGGGLSSVGGGSSTIKYTTTSSSSRKSYKH
partner: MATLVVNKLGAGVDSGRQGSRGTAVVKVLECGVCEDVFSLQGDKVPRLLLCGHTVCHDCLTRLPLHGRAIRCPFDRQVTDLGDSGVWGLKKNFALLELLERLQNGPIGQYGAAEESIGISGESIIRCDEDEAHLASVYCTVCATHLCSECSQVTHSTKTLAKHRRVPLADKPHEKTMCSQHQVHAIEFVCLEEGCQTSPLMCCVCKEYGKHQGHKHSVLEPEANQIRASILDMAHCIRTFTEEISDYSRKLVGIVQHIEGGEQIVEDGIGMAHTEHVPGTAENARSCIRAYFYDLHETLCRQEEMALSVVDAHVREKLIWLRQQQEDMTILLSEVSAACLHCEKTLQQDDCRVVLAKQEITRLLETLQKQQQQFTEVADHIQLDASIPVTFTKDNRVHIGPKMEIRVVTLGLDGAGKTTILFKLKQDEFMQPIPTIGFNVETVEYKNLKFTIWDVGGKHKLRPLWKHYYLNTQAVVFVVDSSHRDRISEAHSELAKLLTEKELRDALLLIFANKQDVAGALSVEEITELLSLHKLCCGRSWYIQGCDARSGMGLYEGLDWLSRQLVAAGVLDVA
B2: 2'-5'-oligoadenylate synthase 1 (Homo sapiens), P00973-2 (parent)
chain: MMDLRNTPAKSLDKFIEDYLLPDTCFRMQINHAIDIICGFLKERCFRGSSYPVCVSKVVKGGSSGKGTTLRGRSDADLVVFLSPLTTFQDQLNRRGEFIQEIRRQLEACQRERAFSVKFEVQAPRWGNPRALSFVLSSLQLGEGVEFDVLPAFDALGQLTGGYKPNPQIYVKLIEECTDLQKEGEFSTCFTELQRDFLKQRPTKLKSLIRLVKHWYQNCKKKLGKLPPQYALELLTVYAWERGSMKTHFNTAQGFRTVLELVINYQQLCIYWTKYYDFKNPIIEKYLRRQLTKPRPVILDPADPTGNLGGGDPKGWRQLAQEAEAWLNYPCFKNWDGSPVSSWILLVRPPASSLPFIPAPLHEA
B3: U4/U6 small nuclear ribonucleoprotein Prp3 (Homo sapiens), O43395 (parent)
chain: MALSKRELDELKPWIEKTVKRVLGFSEPTVVTAALNCVGKGMDKKKAADHLKPFLDDSTLRFVDKLFEAVEEGRSSRHSKSSSDRSRKRELKEVFGDDSEISKESSGVKKRRIPRFEEVEEEPEVIPGPPSESPGMLTKLQIKQMMEAATRQIEERKKQLSFISPPTPQPKTPSSSQPERLPIGNTIQPSQAATFMNDAIEKARKAAELQARIQAQLALKPGLIGNANMVGLANLHAMGIAPPKVELKDQTKPTPLILDEQGRTVDATGKEIELTHRMPTLKANIRAVKREQFKQQLKEKPSEDMESNTFFDPRVSIAPSQRQRRTFKFHDKGKFEKIAQRLRTKAQLEKLQAEISQAARKTGIHTSTRLALIAPKKELKEGDIPEIEWWDSYIIPNGFDLTEENPKREDYFGITNLVEHPAQLNPPVDNDTPVTLGVYLTKKEQKKLRRQTRREAQKELQEKVRLGLMPPPEPKVRISNLMRVLGTEAVQDPTKVEAHVRAQMAKRQKAHEEANAARKLTAEQRKVKKIKKLKEDISQGVHISVYRVRNLSNPAKKFKIEANAGQLYLTGVVVLHKDVNVVVVEGGPKAQKKFKRLMLHRIKWDEQTSNTKGDDDEESDEEAVKKTNKCVLVWEGTAKDRSFGEMKFKQCPTENMAREHFKKHGAEHYWDLALSESVLESTD
B4: Meiotic recombination protein DMC1/LIM15 homolog (Homo sapiens), Q14565 (parent)
chain: MKEDQVVAEEPGFQDEEESLFQDIDLLQKHGINVADIKKLKSVGICTIKGIQMTTRRALCNVKGLSEAKVDKIKEAANKLIEPGFLTAFEYSEKRKMVFHITTGSQEFDKLLGGGIESMAITEAFGEFRTGKTQLSHTLCVTAQLPGAGGYPGGKIIFIDTENTFRPDRLRDIADRFNVDHDAVLDNVLYARAYTSEHQMELLDYVAAKFHEEAGIFKLLIIDSIMALFRVDFSGRGELAERQQKLAQMLSRLQKISEEYNVAVFVTNQMTADPGATMTFQADPKKPIGGHILAHASTTRISLRKGRGELRIAKIYDSPEMPENEATFAITAGGIGDAKE
B5: U4/U6 small nuclear ribonucleoprotein Prp31 (Homo sapiens), Q8WWY3 (parent)
chain: MSLADELLADLEEAAEEEEGGSYGEEEEEPAIEDVQEETQLDLSGDSVKTIAKLWDSKMFAEIMMKIEEYISKQAKASEVMGPVEAAPEYRVIVDANNLTVEIENELNIIHKFIRDKYSKRFPELESLVPNALDYIRTVKELGNSLDKCKNNENLQQILTNATIMVVSVTASTTQGQQLSEEELERLEEACDMALELNASKHRIYEYVESRMSFIAPNLSIIIGASTAAKIMGVAGGLTNLSKMPACNIMLLGAQRKTLSGFSSTSVLPHTGYIYHSDIVQSLPPDLRRKAARLVAAKCTLAARVDSFHESTEGKVGYELKDEIERKFDKWQEPPPVKQVKPLPAPLDGQRKKRGGRRYRKMKERLGLTEIRKQANRMSFGEIEEDAYQEDLGFSLGHLGKSGSGRVRQTQVNEATKARISKTLQRTLQKQSVVYGGKSTIRDRSSGTASSVAFTPLQGLEIVNPQAAEKKVAEANQKYFSSMAEFLKVKGEKSGLMST
partner: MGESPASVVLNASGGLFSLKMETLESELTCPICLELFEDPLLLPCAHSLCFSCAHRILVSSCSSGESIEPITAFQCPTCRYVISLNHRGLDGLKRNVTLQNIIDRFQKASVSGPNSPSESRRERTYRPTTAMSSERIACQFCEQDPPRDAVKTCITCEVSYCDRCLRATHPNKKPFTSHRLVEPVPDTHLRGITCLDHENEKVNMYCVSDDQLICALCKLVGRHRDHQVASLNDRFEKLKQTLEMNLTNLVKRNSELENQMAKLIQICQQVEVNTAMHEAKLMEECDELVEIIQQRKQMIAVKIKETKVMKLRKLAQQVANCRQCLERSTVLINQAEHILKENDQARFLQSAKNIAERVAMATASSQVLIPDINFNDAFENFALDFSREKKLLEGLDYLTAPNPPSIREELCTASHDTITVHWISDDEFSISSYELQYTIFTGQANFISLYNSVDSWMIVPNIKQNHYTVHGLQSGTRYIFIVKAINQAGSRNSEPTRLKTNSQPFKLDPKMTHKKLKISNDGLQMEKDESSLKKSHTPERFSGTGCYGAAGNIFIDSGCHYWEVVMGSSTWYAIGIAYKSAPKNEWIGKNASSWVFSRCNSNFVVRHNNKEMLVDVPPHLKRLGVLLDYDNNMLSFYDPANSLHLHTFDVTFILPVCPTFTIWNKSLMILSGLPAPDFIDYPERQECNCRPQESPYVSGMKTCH
B6: E3 ubiquitin-protein ligase Midline-1 (Homo sapiens), O15344 (parent)
chain: METLESELTCPICLELFEDPLLLPCAHSLCFNCAHRILVSHCATNESVESITAFQCPTCRHVITLSQRGLDGLKRNVTLQNIIDRFQKASVSGPNSPSETRRERAFDANTMTSAEKVLCQFCDQDPAQDAVKTCVTCEVSYCDECLKATHPNKKPFTGHRLIEPIPDSHIRGLMCLEHEDEKVNMYCVTDDQLICALCKLVGRHRDHQVAALSERYDKLKQNLESNLTNLIKRNTELETLLAKLIQTCQHVEVNASRQEAKLTEECDLLIEIIQQRRQIIGTKIKEGKVMRLRKLAQQIANCKQCIERSASLISQAEHSLKENDHARFLQTAKNITERVSMATASSQVLIPEINLNDTFDTFALDFSREKKLLECLDYLTAPNPPTIREELCTASYDTITVHWTSDDEFSVVSYELQYTIFTGQANVVSLCNSADSWMIVPNIKQNHYTVHGLQSGTKYIFMVKAINQAGSRSSEPGKLKTNSQPFKLDPKSAHRKLKVSHDNLTVERDESSSKKSHTPERFTSQGSYGVAGNVFIDSGRHYWEVVISGSTWYAIGLAYKSAPKHEWIGKNSASWALCRCNNNWVVRHNSKEIPIEPAPHLRRVGILLDYDNGSIAFYDALNSIHLYTFDVAFAQPVCPTFTVWNKCLTIITGLPIPDHLDCTEQLP
partner: B5 partner

Variants of: B1
Settings: with tri23_human TRIM23, P36406

Row | Variant | effect of a mutation on the interaction
1 | A463P | disrupting interaction strength
2 | N171K | disrupting interaction strength
3 | I462S | disrupting interaction strength
4 | N21S | with no effect
5 | F174V | with no effect
6 | V523F | with no effect
7 | F249L | with no effect
8 | T552S | with no effect

Variants of: B2
Settings: with exoc5_human EXOC5, O00471
Sequence of exoc5_human EXOC5, O00471 (O00471 whole entry): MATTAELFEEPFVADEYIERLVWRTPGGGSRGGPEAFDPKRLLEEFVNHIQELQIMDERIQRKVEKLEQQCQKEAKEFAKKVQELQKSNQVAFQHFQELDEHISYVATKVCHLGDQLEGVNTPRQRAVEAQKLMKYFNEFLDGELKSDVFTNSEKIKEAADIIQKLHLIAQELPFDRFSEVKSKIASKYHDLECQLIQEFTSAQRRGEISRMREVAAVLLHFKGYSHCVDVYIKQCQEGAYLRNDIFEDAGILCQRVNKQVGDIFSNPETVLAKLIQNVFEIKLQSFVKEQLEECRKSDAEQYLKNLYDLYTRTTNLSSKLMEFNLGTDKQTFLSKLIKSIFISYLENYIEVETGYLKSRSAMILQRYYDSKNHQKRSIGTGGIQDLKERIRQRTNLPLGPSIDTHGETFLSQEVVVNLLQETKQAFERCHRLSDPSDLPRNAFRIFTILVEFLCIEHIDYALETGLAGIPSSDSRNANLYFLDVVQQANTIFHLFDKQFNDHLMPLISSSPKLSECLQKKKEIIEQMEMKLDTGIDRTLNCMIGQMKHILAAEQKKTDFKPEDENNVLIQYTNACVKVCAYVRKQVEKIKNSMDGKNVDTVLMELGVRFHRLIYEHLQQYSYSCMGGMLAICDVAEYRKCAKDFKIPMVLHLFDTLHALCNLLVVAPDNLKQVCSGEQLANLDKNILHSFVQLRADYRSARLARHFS

Row | Variant | effect of a mutation on the interaction
9 | R242Q | with no effect

Variants of: B2
Settings: with actn1_human ACTN1, P12814
Sequence of actn1_human ACTN1, P12814 (P12814 whole entry): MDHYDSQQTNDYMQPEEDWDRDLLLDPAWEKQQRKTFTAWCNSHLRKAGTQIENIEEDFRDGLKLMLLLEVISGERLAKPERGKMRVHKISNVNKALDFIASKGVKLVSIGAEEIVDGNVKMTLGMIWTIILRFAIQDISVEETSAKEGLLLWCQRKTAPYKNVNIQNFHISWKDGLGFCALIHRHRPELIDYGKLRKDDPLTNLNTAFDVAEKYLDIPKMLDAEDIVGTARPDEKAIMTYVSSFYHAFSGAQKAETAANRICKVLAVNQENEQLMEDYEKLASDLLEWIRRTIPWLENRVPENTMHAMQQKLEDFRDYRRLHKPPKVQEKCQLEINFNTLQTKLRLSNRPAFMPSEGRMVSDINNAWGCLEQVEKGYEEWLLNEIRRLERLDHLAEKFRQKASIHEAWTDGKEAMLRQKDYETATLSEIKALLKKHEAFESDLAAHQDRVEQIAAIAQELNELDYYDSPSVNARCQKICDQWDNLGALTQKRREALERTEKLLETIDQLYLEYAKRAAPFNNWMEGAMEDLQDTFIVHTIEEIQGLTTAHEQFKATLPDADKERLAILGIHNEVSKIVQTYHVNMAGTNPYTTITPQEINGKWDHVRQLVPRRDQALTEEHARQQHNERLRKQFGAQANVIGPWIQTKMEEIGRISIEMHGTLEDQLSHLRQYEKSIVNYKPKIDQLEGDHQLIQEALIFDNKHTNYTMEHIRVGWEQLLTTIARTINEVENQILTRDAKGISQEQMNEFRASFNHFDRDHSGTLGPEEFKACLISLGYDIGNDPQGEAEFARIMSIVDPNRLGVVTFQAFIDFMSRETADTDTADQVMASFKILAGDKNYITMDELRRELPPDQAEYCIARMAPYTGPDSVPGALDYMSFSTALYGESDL

Row | Variant | effect of a mutation on the interaction
10 | R242Q | with no effect

Variants of: B3
Settings: with psmd3_human PSMD3, O43242
Sequence of psmd3_human PSMD3, O43242 (O43242 whole entry): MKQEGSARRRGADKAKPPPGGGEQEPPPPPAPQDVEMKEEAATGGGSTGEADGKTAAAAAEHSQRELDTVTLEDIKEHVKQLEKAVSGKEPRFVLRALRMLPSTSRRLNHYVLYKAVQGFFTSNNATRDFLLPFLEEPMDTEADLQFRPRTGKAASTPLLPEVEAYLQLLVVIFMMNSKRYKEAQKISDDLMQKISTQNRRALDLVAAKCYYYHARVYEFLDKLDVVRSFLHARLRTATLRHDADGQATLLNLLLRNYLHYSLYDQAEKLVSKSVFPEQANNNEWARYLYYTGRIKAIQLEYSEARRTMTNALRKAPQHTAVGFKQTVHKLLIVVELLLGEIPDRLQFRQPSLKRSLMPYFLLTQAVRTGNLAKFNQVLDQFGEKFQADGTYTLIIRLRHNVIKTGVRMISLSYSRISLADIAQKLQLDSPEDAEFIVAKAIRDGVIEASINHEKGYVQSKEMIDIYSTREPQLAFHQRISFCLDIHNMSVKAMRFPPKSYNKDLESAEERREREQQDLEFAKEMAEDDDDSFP

Row | Variant | effect of a mutation on the interaction
11 | A489D | disrupting interaction strength
12 | P493S | disrupting interaction strength
13 | T494M | disrupting interaction strength

Variants of: B3
Settings: with fam9b_human FAM9B

Row | Variant | effect of a mutation on the interaction
14 | A489D | with no effect
15 | P493S | with no effect
16 | T494M | disrupting interaction strength

Variants of: B4
Settings: with psa3_human PSMA3, P25788
Sequence of psa3_human PSMA3, P25788 (P25788 whole entry): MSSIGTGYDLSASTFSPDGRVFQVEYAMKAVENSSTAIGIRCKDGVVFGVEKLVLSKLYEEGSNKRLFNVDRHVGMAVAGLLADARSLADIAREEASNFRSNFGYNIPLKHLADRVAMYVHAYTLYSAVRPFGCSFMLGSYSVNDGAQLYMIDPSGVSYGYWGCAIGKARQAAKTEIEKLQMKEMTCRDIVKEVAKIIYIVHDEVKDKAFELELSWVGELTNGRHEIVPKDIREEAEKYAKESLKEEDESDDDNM

Row | Variant | effect of a mutation on the interaction
17 | M200V | disrupting interaction strength

Variants of: B4
Settings: with sdcb1_human SDCBP

Row | Variant | effect of a mutation on the interaction
18 | M200V | disrupting interaction strength

Variants of: B5
Settings: with MID2, Q9UJV3-2

Row | Variant | effect of a mutation on the interaction
19 | L107V | with no effect

Variants of: B6
Settings: with MID2, Q9UJV3-2

Row | Variant | effect of a mutation on the interaction
20 | P151L | with no effect
21 | L626P | with no effect
